The values below come from US20260116991A1 (HAINAN SIMCERE ZAIMING PHARMACEUTICAL, published 2026).

In test [1] the target is T1, monkey GPC3-His protein (monkey).
T1 construct: Bought protein; also called monkey GPC3 protein
Briefly: ELISA, monkey GPC3-His coated; antibody 0.004 nM. (In an ELISA, binding on a coated surface is turned into a signal by an enzyme label.)
Description: (§1) The specific method is described as follows: The antigen protein was diluted with PBS to a final concentration of 1 μg/mL, and the diluent was added to a 96-well ELISA plate at 50 μL/well. The plate was sealed with a plastic film and incubated at 4° C. overnight, washed twice with PBS the next day, and a blocking solution [PBS+2% (w/w) BSA] was added for blocking at room temperature for 2 h. […] After incubation at 37° C. for 2 h, the plate was washed 3 times with PBS. A horseradish peroxidase (HRP)-labeled secondary antibody (purchased from Merck, Cat. No. AP113P) was added for incubation at 37° C. for 1 h, and the plate was washed 5 times with PBS. A TMB substrate was added at 50 μL/well for incubation at room temperature for 10 min, then a stop solution (1.0M HCl) was added at 50 μL/well.

Test [2] concerns the target T1, monkey GPC3-His protein. Description: ELISA, monkey GPC3-His coated; antibody 0.0008 nM.
Description: as §1
For a further test, the target named is T2, GPC3 on HepG2 cells (human, UniProt P51654 25-554).
T2 construct: whole, on cells; also called glypican-3
Description: FACS on HepG2 cells.

The target in test [3] is T1, monkey GPC3-His protein. Description: ELISA, monkey GPC3-His coated; antibody 0.11 nM.
Description: as §1
Test [4] has as its target T1, monkey GPC3-His protein. Description: ELISA, monkey GPC3-His coated; antibody 66.66 nM.
Description: as §1
Test [5] addresses T1, monkey GPC3-His protein. Description: ELISA, monkey GPC3-His coated; antibody 0.02 nM.
Description: as §1
Test [6] has as its target T1, monkey GPC3-His protein. Briefly: ELISA, monkey GPC3-His coated; antibody 13.33 nM.
Description: as §1
Test [7] addresses T1, monkey GPC3-His protein. Description: ELISA, monkey GPC3-His coated; antibody 2.67 nM.
Description: as §1
In test [8] the target is T1, monkey GPC3-His protein. Briefly: ELISA, monkey GPC3-His coated; antibody 0.53 nM.
Description: as §1
The target in test [9] is T3, polypeptide GC3pep (human).
T3 construct: also called membrane proximal polypeptide GC3pep
T3 peptide: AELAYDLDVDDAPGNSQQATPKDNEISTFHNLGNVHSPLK
Briefly: ELISA, GC3pep coated, antibody 100 nM.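 Note: detection with an HRP-conjugated secondary antibody and TMB substrate, color reaction stopped with HCl before absorbance reading.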
Description: (§2) The plate was sealed with a plastic film and incubated at 4° C. overnight, washed twice with PBS the next day, and a blocking solution [PBS+2% (w/w) BSA] was added for blocking at room temperature for 2 h. […] After incubation at 37° C. for 2 h, the plate was washed 3 times with PBS. A horseradish peroxidase (HRP)-labeled secondary antibody (purchased from Merck, Cat. No. AP113P) was added for incubation at 37° C. for 1 h, and the plate was washed 5 times with PBS. A TMB substrate was added at 50 μL/well for incubation at room temperature for 10 min, then a stop solution (1.0M HCl) was added at 50 μL/well.

For test [10], the target named is T3, polypeptide GC3pep. Briefly: ELISA, GC3pep coated, antibody 10 nM.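 Note: antibody bound to the coated peptide for 2 h at 37 °C, detected through an HRP-conjugated secondary antibody with TMB colour development stopped by acid.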
Test [11] concerns the target T3, polypeptide GC3pep. Description: ELISA, GC3pep coated, antibody 0.001 nM.
Test [12] addresses T3, polypeptide GC3pep. Description: ELISA, GC3pep coated, antibody 0.1 nM.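 Note: antibody allowed to bind the coated plate 2 h at 37 °C, then detected via HRP-conjugated secondary antibody and TMB development for 10 min, stopped with HCl.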
Test [13] addresses T3, polypeptide GC3pep. Description: ELISA, GC3pep coated, antibody 0.01 nM.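 Note: bound antibody detected with an HRP-conjugated secondary antibody and TMB substrate, color reaction stopped with HCl before reading absorbance.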
Another test addresses T4, murine GPC3-His protein (murine, UniProt Q8CFZ4 25-558, limits assumed).
T4 construct: bought protein; also called murine GPC3 protein
Briefly: SPR, antibody captured on Protein A chip, murine GPC3-His injected. For orientation: Surface plasmon resonance follows binding to a sensor surface in real time, without labels.

For test [14], the target named is T3, polypeptide GC3pep. Description: ELISA, GC3pep coated, antibody 0.0001 nM.
Test [15] has as its target T3, polypeptide GC3pep. Description: ELISA, GC3pep coated, antibody 1 nM.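 Note: bound antibody detected with an HRP-conjugated secondary antibody and TMB substrate, reaction stopped with HCl, after 2 h binding at 37 °C.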
Description: as §2

T4 sequence (Q8CFZ4 25-558 limits assumed): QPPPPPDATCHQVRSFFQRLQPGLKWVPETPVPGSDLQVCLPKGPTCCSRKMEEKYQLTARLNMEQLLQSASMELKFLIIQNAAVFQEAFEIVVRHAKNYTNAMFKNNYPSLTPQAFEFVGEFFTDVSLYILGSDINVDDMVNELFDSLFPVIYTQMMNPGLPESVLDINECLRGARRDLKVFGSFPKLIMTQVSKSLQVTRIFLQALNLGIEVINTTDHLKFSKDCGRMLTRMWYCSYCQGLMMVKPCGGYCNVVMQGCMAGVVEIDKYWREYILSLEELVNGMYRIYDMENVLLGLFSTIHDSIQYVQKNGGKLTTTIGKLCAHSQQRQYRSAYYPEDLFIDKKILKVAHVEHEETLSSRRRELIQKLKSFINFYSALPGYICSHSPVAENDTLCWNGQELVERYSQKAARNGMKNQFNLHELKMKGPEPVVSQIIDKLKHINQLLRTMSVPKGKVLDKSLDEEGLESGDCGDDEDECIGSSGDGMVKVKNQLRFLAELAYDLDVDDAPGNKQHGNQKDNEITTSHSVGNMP
Description for GPC3 on HepG2 cells: The desired cells were expanded to a logarithmic growth phase in a T-75 cell culture flask, the medium was removed by pipetting, and the cells were washed twice with a PBS buffer, and digested with trypsin. Then a complete medium was added to stop the digestion, and the cells were blown into a single cell suspension. After counting, the cells were centrifuged, and the cell pellet was resuspended with an FACS buffer (PBS+2% fetal bovine serum) to 2×10⁶ cells/mL. The cell resuspension solution was added to a 96-well FACS reaction plate at 50 μl/well, and a humanized antibody sample to be tested was added at 50 μl/well for incubation at 4° C. for 1 h. […] After the plate was centrifuged and washed 3 times with a PBS buffer, 100 μl of the resulting solution was assayed and analyzed by FACS (FACS Canto™, purchased from BD Biosciences). Data analysis was performed by software (FlowJo) to obtain the mean fluorescence intensity (MFI) of the cells. Then, analysis was performed by software (GraphPad Prism8), data were fitted, and EC₅₀ values were calculated.
Description for murine GPC3-His protein: The flow cell was set at 25° C. The sample block was set at 16° C. Both were pretreated with the running buffer. In each cycle, first, the antibody to be tested was captured using the Protein A chip, and then a single concentration of GPC3 antigen protein was injected. […] The association was determined by injecting different concentrations of human GPC3-His in the solution and maintaining for 240 s, wherein the flow rate was 30 μL/min, and the protein was diluted at a 1:1 dilution ratio from 200 nM to obtain 5 concentrations in total. The dissociation phase was monitored for up to 600 s and triggered by switching from the sample solution to the running buffer. The surface was regenerated by washing with 10 mM glycine solution (pH 1.5) at a flow rate of 30 μL/min for 30 s. The difference in bulk refractive index was corrected by subtracting the responses obtained from the goat anti-human Fc surface. Blank injections (double reference) were also subtracted. To calculate the apparent KD and other kinetic parameters, the Langmuir 1:1 model was used.

B1: hAb007LH2L1b (antibody, human IgG1, V domains shown)
VH: EVQLVQSGAEVKKPGSSVKVSCKASGYTFTDYEMHWVRQAPGQGLEWMGTIDPETGNTAYNQKFKGRVTITADKSTSTAYMELSSLRSEDTAVYYCTRPYSLTYWGQGTLVTVSS
VL: DIVMTQTPLSLPVTPGEPASISCRSSQSFVHSNRDTYLQWYLQKPGQSPQLLIYKVSNRFSGVPDRFSGSGSGTDFTLKISRVEAEDVGVYYCFQGSHVPYTFGQGTKLEIK
notes: Humanized F3.81.19, H2+L1b
On to B1, for which the OD450 nm with monkey GPC3-His protein [1] was determined as 0.127; in the test with monkey GPC3-His protein [2], 0.08; with monkey GPC3-His protein [3], 0.967; with monkey GPC3-His protein [4], 2.61; with monkey GPC3-His protein [5], 0.32; with monkey GPC3-His protein [6], 2.56. The OD450 nm came to 2.35 with monkey GPC3-His protein [7] and 2.09 with monkey GPC3-His protein [8]. This molecule also showed an EC50 with GPC3 on HepG2 cells of 9.53 nM. Also, the “Max MFI” value with GPC3 on HepG2 cells amounted to 5320.

B2: hAb005LH1L1b (antibody, human IgG1, V domains shown)
VH: EVQLVQSGAEVKKPGASVKVSCKASGYTFTDYEMHWVRQAPGQGLEWMGAIDPETGNTAYIQKFKGRVTMTTDKSTSTAYMELRSLRSDDTAVYYCTRFYSYSHWGQGTTVTVSS
VL: DIVMTQTPLSLPVTPGEPASISCRSSQSLVHSNRNTYLHWYLQKPGQSPQLLIYKVSNRFSGVPDRFSGSGSGTDFTLKISRVEAEDVGVYYCSQNTHVPPTFGGGTKVEIK
notes: Humanized F3.54.12, H1+L1b
As to B2, the OD450 nm with monkey GPC3-His protein [1] amounted to 0.215; in the test with monkey GPC3-His protein [2], 0.107; in the test with monkey GPC3-His protein [3], 0.949; with monkey GPC3-His protein [4], 1.16; with monkey GPC3-His protein [5] it was 0.664; with monkey GPC3-His protein [6] it was 1.16. The values for the OD450 nm with monkey GPC3-His protein [7] and with monkey GPC3-His protein [8] were 1.11 and 1.09, respectively. For the same molecule, the response in the test with GPC3 on HepG2 cells was half-maximal at 1.01 nM (EC50). Moreover, the “Max MFI” value with GPC3 on HepG2 cells turned out to be 4800.

B3: hAb006LH3L1b (antibody, human IgG1, V domains shown)
VH: EVQLVQSGAEVKKPGSSVKVSCKASGYTFTDYEIHWVRQAPGQGLEWMGAIDPKTGNTAYNQKFMGRVTLTADKSTSTAYMELSSLRSEDTAVYYCTRYFSFAYWGQGTLVTVSS
VL: DIVMTQTPLSLPVTPGEPASISCRSSQTFVHSNANTYLQWYLQKPGQSPQLLIYKVSNRFSGVPDRFSGSGSGTDFTLKISRVEAEDVGVYYCFQGSHVPYTFGQGTKLEIK
notes: Humanized F3.38.7, H3+L1b
As for B3, the OD450 nm with monkey GPC3-His protein [1] was 0.306; with monkey GPC3-His protein [2], 0.125; in the test with monkey GPC3-His protein [3], 1.99; with monkey GPC3-His protein [4] it was 2.67; with monkey GPC3-His protein [5], 1.01; in the test with monkey GPC3-His protein [6], 2.38. Besides, the OD450 nm is 2.55 with monkey GPC3-His protein [7] and 2.56 with monkey GPC3-His protein [8]. The EC50 in the test with GPC3 on HepG2 cells was found to be 1.49 nM. Besides, the “Max MFI” value in the test with GPC3 on HepG2 cells is 4610.

B4: hAb003LH2L1b (antibody, human IgG1, V domains shown)
VH: EVQLVQSGAEVKKPGSSVKVSCKASGYRFTDYEMHWVRQAPGQGLEWMGTIDPETGNTAYTQKFMDRVTITADKSTSTAYMELSSLRSEDTAVYYCTRGYSFTYWGQGTLVTVSS
VL: DIVMTQTPLSLPVTPGEPASISCRSSQNIVHSNRNTYLQWYLQKPGQSPQLLIFKVSNRFSGVPDRFSGSGSGTDFTLKISRVEAEDVGVYYCFQGSHVPFTFGQGTKLEIK
notes: Humanized F2.154.1, H2+L1b
As for B4, the OD450 nm came out at 0.386 with monkey GPC3-His protein [1]; 0.185 with monkey GPC3-His protein [2]; 1.96 with monkey GPC3-His protein [3]; 2.35 with monkey GPC3-His protein [4]; 1.1 in the test with monkey GPC3-His protein [5]; 2.27 with monkey GPC3-His protein [6]. For the same molecule, the OD450 nm in the test with monkey GPC3-His protein [7] turned out to be 2.36; with monkey GPC3-His protein [8], 2.3. In addition, in the test with GPC3 on HepG2 cells, the EC50 came to 0.84 nM. Further, the “Max MFI” value with GPC3 on HepG2 cells worked out at 4620.

B5: F4.26.1 (antibody, human IgG1, kappa, V domains shown)
VH: QVQLKQSGPGLVQPSQSLSITCTVSGFSLTSYGVHWVRQSPGKGLEWLGVIWSSGNTDYNAVLISRLSIKKDDSKSQVFFKMNSPQVDDSAIYYCGRNGGWLLRGFMDFWGQGTSVTVSS
VL: DVVMTQTPLSLPVSLGDQASISCRSSQSLLHSNGNTYLHWYLQRSGQSPNLLIYKVSNRFSGVPDRFSGGGSGTDFTLKISRVEAEDLGIYFCSQSTHVPWTFGGGTKLEIKR
notes: human-murine chimeric antibody
Turning to B5, the OD450 nm in the test with polypeptide GC3pep [9] amounted to 0.12 OD450 nm; with polypeptide GC3pep [10] it was 0.04 OD450 nm; with polypeptide GC3pep [11] it was 0.19 OD450 nm; in the test with polypeptide GC3pep [12], 0.08 OD450 nm; with polypeptide GC3pep [13], 0.16 OD450 nm; with polypeptide GC3pep [14] it was 0.05 OD450 nm. In addition, the OD450 nm with polypeptide GC3pep [15] is 0.28 OD450 nm. In the test with murine GPC3-His protein, this molecule had a Kd of 1.46 nM. Further, the koff with murine GPC3-His protein amounted to 0.00072 s⁻¹. The molecule also registered a kon in the test with murine GPC3-His protein of 492000 M⁻¹ s⁻¹.

B6: F1.2.14 (antibody, human IgG1, kappa, V domains shown)
VH: RVQLQQSGAELVKPGASVRMSCKASGYTFTAYSIEWMKQNLGKSLEWIGNFRPYNDDTKYNENFKGRATLTVEKSSATVYLELSRLTSDDSAVYYCARSGPTDYFDYWGQGTTLIVSS
VL: DIQMTQSPASLSASVGETVTITCRASDNIYSYLAWYQQKQGQSPQLLVYNAKTLAEGVPSRFSGSGSVTQFSLKIISLQPEDFGTYYCQHHFGTPRTFGGGTKLEIKR
notes: as for B5
Regarding B6, the OD450 nm with polypeptide GC3pep [9], in the test with polypeptide GC3pep [10], in the test with polypeptide GC3pep [11], with polypeptide GC3pep [12], in the test with polypeptide GC3pep [13] and with polypeptide GC3pep [14] was 0.05 OD450 nm in each case. The molecule also showed an OD450 nm in the test with polypeptide GC3pep [15] of 0.05 OD450 nm. Besides, the Kd in the test with murine GPC3-His protein was 0.844 nM. The same molecule had a koff in the test with murine GPC3-His protein of 0.000147 s⁻¹. Also, the kon with murine GPC3-His protein was found to be 174000 M⁻¹ s⁻¹.

B7: F1.145.22 (antibody, human IgG1, kappa, V domains shown)
VH: QVQLQQSGTDLARPGASVKLSCKASGYTFTSFGISWVKQRTGQGLEWIGEIYPRSGSPYYNEKFTGKATLTADKSSSTAYMELRSLTSEDSAVYFCAKDFGSSYVFDYWGQGTALTVSS
VL: DIQMTQSPASLSASVGETVTITCRASENIYSYLTWYQQKQGKSPQLLVYNAKTLAEGVPSRFSGSGSGTQFSLKINSLQPEDFGTYYCQHHYGTPPTFGTGTKLDLKR
notes: as for B5
For B7, the OD450 nm with polypeptide GC3pep [9] is 0.11 OD450 nm; with polypeptide GC3pep [10], 0.05 OD450 nm; with polypeptide GC3pep [11], 0.04 OD450 nm; with polypeptide GC3pep [12], 0.04 OD450 nm; in the test with polypeptide GC3pep [13] it was 0.04 OD450 nm; with polypeptide GC3pep [14] it was 0.04 OD450 nm. This molecule had an OD450 nm with polypeptide GC3pep [15] of 0.04 OD450 nm. In the test with murine GPC3-His protein, this molecule had a Kd of 6.87 nM. The same molecule registered a koff with murine GPC3-His protein of 0.00173 s⁻¹. In the test with murine GPC3-His protein, this molecule returned a kon of 251000 M⁻¹ s⁻¹.

B8: F1.21.8 (antibody, human IgG1, kappa, V domains shown)
VH: EVQLQQSGPELVKPGASVKISCKTSGFLFTGHYMHWVKSSHGNILDWIGYIYPYNAISFYNQKFKGKATLTVDKSSNTAYMELRSLTSEDSAVYYCARGDYGNYVTAYWGQGTLVTVSA
VL: DVLMTQTPLSLPVSLGDQASISCRSSQSIVHSSGNTYLEWYLQKPGQSPKLLIYKVSNRFSGVPDRFSGSGSGTDFTLKISRVEAEDLGVYYCFQGSHLPWTFGGGTKLDIKR
notes: as for B5
On to B8, for which the OD450 nm with polypeptide GC3pep [9], with polypeptide GC3pep [10], in the test with polypeptide GC3pep [11], with polypeptide GC3pep [12], with polypeptide GC3pep [13] and with polypeptide GC3pep [14] was 0.05 OD450 nm throughout. Also, the OD450 nm in the test with polypeptide GC3pep [15] amounted to 0.05 OD450 nm. The molecule further had a dissociation constant Kd with murine GPC3-His protein of 0.0771 nM. For the same molecule, in the test with murine GPC3-His protein, the koff was found to be 4.84e-05 s⁻¹. This molecule also gave an association rate constant (kon) with murine GPC3-His protein of 628000 M⁻¹ s⁻¹.

B9: F1.111.11 (antibody, human IgG1, kappa, V domains shown)
VH: EVQLQQSGPELVKPGASVKISCKASGYTFTDYYMNWVKQSHGKSLEWIGDIYPNNGDTTYNQRFKGKATLTVDKSSSTAYMELRSLASEDSAVYYCACPYNNPFGYWGQGTLVTVSA
VL: DVVMTQTPLSLPVSLGDQASISCRSSQSLVHSNGNTYLHWYLQKPGQSPKLLIYKVSNRFSGVPDRFSGSGSGTDFTLKISRVEAEDLGVYFCSQSTHVPWTFGGGTKLEIKR
notes: as for B5
Take B9: the OD450 nm worked out at 0.15 OD450 nm in the test with polypeptide GC3pep [9]; 0.06 OD450 nm with polypeptide GC3pep [10]; 0.06 OD450 nm with polypeptide GC3pep [11]; 0.06 OD450 nm with polypeptide GC3pep [12]; 0.05 OD450 nm with polypeptide GC3pep [13]; 0.06 OD450 nm with polypeptide GC3pep [14]. In addition, the OD450 nm in the test with polypeptide GC3pep [15] was 0.06 OD450 nm. In addition, in the test with murine GPC3-His protein, the equilibrium dissociation constant (Kd) came out at 3.47 nM. Moreover, the off-rate (koff) in the test with murine GPC3-His protein was determined as 0.00045 s⁻¹. Further, the kon with murine GPC3-His protein was found to be 129000 M⁻¹ s⁻¹.

For orientation: EC50 means the midpoint of the concentration-response curve. In general, Kd refers to the equilibrium constant for the complex coming apart. As usually defined, the koff is the first-order rate constant of dissociation. As a reminder, the kon is the second-order rate constant of association.
